Measurements from PMC5889866.

Columns and labels:
[1] = target: minicollagen peptide H-Gly-Pro-Arg-Gly-(Pro-Hyp-Gly)12-NH2; assay: SPR; […] (BIACORE); […]; 10 mM sodium HEPES pH 7.4, 150 mM NaCl, 1 mM CaCl2, 0.005% Tween-20; 20 ul/min; 25 C; […]
[2] = target: minicollagen peptide H-Gly-Pro-Arg-Gly-(Pro-Hyp-Gly)12-NH2; assay: SPR; minicollagen peptide amine-coupled on a CM5 chip (BIACORE); collagen anchors as analyte, eight concentrations 100 nM-300 uM; 10 mM sodium HEPES pH 7.4, 150 mM NaCl, 1 mM CaCl2, 0.005% Tween-20; 20 ul/min; 25 C; equilibrium responses fitted; apparent KD

CBD (s3) of Clostridium histolyticum class II collagenase ColH (domain or fragment)
Kd [1]: 752 µM

CBD (s3b) of Clostridium histolyticum class I collagenase ColG (domain or fragment)
Kd [2]: 45.4 µM

CBD-CBD (s3a-s3b) of Clostridium histolyticum class I collagenase ColG (domain or fragment)
Kd [2]: 44.6 µM

PKD-CBD (s2b-s3) of Clostridium histolyticum class II collagenase ColH (domain or fragment)
Kd [1]: 445 µM
